We go through 72 sequences from the supplement of paper PMC10567573.

± gives the standard deviation.

The nature of this series: protein stability index of a GFP-peptide fusion (GPS, HEK-293T) (PSI 1-6); higher = more stable.
Setting [1] is: treatment: DMSO, c terminus: a fixed tail appended.
Setting [2] is: treatment: MLN4924 1 uM, 8 h, c terminus: a fixed tail appended.
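Further: 24-mer peptide tiles fused after GFP, lentivirally expressed, FACS-sorted into six equal bins by GFP/DsRed ratio, decoded by Illumina sequencing, PSI is the read-weighted mean bin number.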

As to TKNKELTDEFRELRATVERMGLMK [FADS1], the protein stability index reads like this: under setting [1], 3.71 ± 0.37; under setting [2], 3.55 ± 0.27. In the same order, the values of LRVMTTNIRSARGNNPNGREAKMI [ELOA2] are 3.25 ± 0.18 and 3.49 ± 0.26. In the same order, the values of PADIQAQFAISRELIRNIYNSFHK [SNX8] are 2.04 ± 0.29 and 2.24 ± 0.3. In the same order, the values of SFVLSSLQLGEGVEFDVLPAFDAL [OAS1] are 2.45 ± 0.59 and 2.26 ± 0.53. Consider NLQSLINNEIPDCYTFSVLITFDN [MCOLN1], for which the protein stability index by setting is: under setting [1], 2.93 ± 0.22; under setting [2], 3.23 ± 0.74. In the same order, the values of QLHAKIDAAEEEKYDMEVRVQKTS [TNNI2] are 5.27 ± 0.23 and 5.22 ± 0.24. Take ILFLPCLRKKILKIRHGWEDVTKI [STEAP1]: the protein stability index under setting [1] is 2.95 ± 0.39 and the protein stability index under setting [2] is 2.46 ± 0.42. In the same order, the values of REESQHEIKDVLVWTNDQVVHWVQ [PPFIA4] are 3.4 ± 0.37 and 3.97 ± 0.45.

In the case of KSLEGDLEDLKDQIAQLEASLAAA [LMNB1], the protein stability index by setting is: under setting [1], 4.48 ± 0.23; under setting [2], 4.23 ± 0.44.

Consider LEEVAVQQTGDDDEVDDFEDFIFS [PBXIP1], for which the protein stability index reads like this: under setting [1], 5.43 ± 0.36; under setting [2], 5.41 ± 0.27.

QPRLSYAEMAEDYPRYPDIHDLDL [CLCN6]: the protein stability index by setting is: under setting [1], 4.14 ± 0.27; under setting [2], 4.24 ± 0.14. Consider ADNMEFEQCIKLWLHALHLRQKGN [FEM1B], for which the protein stability index is, setting by setting: under setting [1], 2.56 ± 0.15; under setting [2], 2.72 ± 0.2. On the same counts, the results for YLASLCMCFGPKKVKPAEAETAGA [SLC29A1] are 2.6 ± 0.28 and 2.83 ± 0.23.

For SQVPTGEVFYYSCEYNFVSPSKSF [CFHR2], the protein stability index by setting is: under setting [1], 2.59 ± 0.85; under setting [2], 2.08 ± 0.26. In the same order, the values of EVEGVKNIMTQNVERILARGENLE [VAMP8] are 4.68 ± 0.15 and 4.46 ± 0.16. Regarding GDGKSKKKQAGRPKGSKGKEKDSP [RBBP5], the protein stability index was determined as 5.39 ± 0.29 under setting [1] and 5.34 ± 0.11 under setting [2].

The sequence VNVSDRGGRTALHHAALNGHVEMV [ANKRD44] gave a protein stability index under setting [1] of 3.39 ± 0.43 and a protein stability index under setting [2] of 3.24 ± 0.093. On the same counts, the results for SSITRQKKRLQELALALKKCKPSL [TMEM120A] are 2.39 ± 0.41 and 2.81 ± 0.39. On the same counts, the results for PLHNSGLLSLDPVQDKTPLYSQLL [MED27] are 2.76 ± 0.27 and 2.92 ± 0.34. In the same order, the values of ISGLRFETQLKTLAQFPNTLLGNP [KCNA1] are 2.46 ± 0.23 and 2.41 ± 0.11.

Consider HHVADAYTSSQKVSPIQIDGAGRT [TOR1AIP2], for which the protein stability index by setting is: under setting [1], 3.53 ± 0.21; under setting [2], 3.74 ± 0.46.

On to FLWGPRALVETSYVKVLHHMVKIS [MAGEA3], for which the protein stability index was determined as 2.01 ± 0.35 under setting [1] and 2.64 ± 0.71 under setting [2]. On the same counts, the results for KGVQQKRPSEAQSVILRRYFLELT [DENND6A] are 2.47 ± 0.098 and 2.57 ± 0.22. Consider AVSESYSAPGACEEPTERGNLEVG [FBXO34], for which the protein stability index runs as follows: under setting [1], 5.49 ± 0.12; under setting [2], 5.57 ± 0.26. On the same counts, the results for MKVKVIPVLEDNYMYLVIEELTRE [HAGHL] are 2.94 ± 0.55 and 2.95 ± 0.56.

As for ALLLGQGANINAQTEETQETALTL [ANKRD17], the protein stability index is 4.17 ± 0.32 under setting [1] and 4.32 ± 0.27 under setting [2]. Take KYDPHTGHWTNVTPMATKRSGAGV [KLHL12]: the protein stability index was 3.69 ± 0.47 under setting [1] and 3.78 ± 0.17 under setting [2]. On the same counts, the results for RCNTTCGRGVKKRLVLCMELANGK [ADAMTSL2] are 3.22 ± 0.21 and 3 ± 0.13. Regarding IRTANCTTANQNCVNKSKLLTDV [KCNA1], the protein stability index (treatment: DMSO, c terminus: native) worked out at 3.19 ± 0.13 and the protein stability index (treatment: MLN4924 1 uM, 8 h, c terminus: native) came out at 3.35 ± 0.28. Consider DDEGWLHSGDLGQLDGLGFLYVTG [ACSBG2], for which the protein stability index under setting [1] was found to be 2.66 ± 0.33 and the protein stability index under setting [2] is 2.54 ± 0.42.

Take GSRPACQLQVPTLRQQCAQVLRNN [ELOA2]: the protein stability index by setting is: under setting [1], 4.43 ± 0.14; under setting [2], 4.51 ± 0.3.

Turning to SRSSLMPLRNDVDKRGETTSASLL [SLC2A12], the protein stability index under setting [1] was determined as 4.55 ± 0.15 and the protein stability index under setting [2] came out at 4.56 ± 0.11. In the case of DHKPKLCRLAKGENGYGFHLNAIR [PDZK1], the protein stability index under setting [1] worked out at 2.25 ± 0.24 and the protein stability index under setting [2] stood at 2.36 ± 0.56.

In turn, TPRRVFANAHTYHINSISVNSDYE [PPP2R2B] came in with a protein stability index under setting [1] of 3.35 ± 0.34 and a protein stability index under setting [2] of 3.12 ± 0.42. In the same order, the values of RPQPWLEKEIEEATKKLGFKHPVI [FUT8] are 3.643 ± 0.035 and 3.22 ± 0.37. In the same order, the values of FEQILSLPELKANPFKERICRVFS [CIB1] are 2.25 ± 0.2 and 2.38 ± 0.16. On the same counts, the results for QYESIAAKNLQEAEEWYKSKYADL [PRPH] are 4.76 ± 0.23 and 4.49 ± 0.21.

Consider DSISLHQPCNPPAPAGDKGFQPPS [DMRTC1], for which the protein stability index runs as follows: under setting [1], 5 ± 0.27; under setting [2], 5 ± 0.16. Consider SEAKLYGRCELARVLHDFGLDGYR [SPACA3], for which the protein stability index runs as follows: under setting [1], 2.23 ± 0.15; under setting [2], 2.42 ± 0.13. Regarding ELIRNIQELLKRTIMQAVSQIRLN [TEKT4], the protein stability index was determined as 3 ± 0.46 under setting [1] and 2.77 ± 0.53 under setting [2].

Turning to TQPTHGQFALTNGDPLNCHSYLSG [NR2F2], the protein stability index runs as follows: under setting [1], 3.69 ± 0.17; under setting [2], 3.87 ± 0.23. In the case of ELQKIVQAGDKDLDGQLDFEEFVH [SLC25A25], the protein stability index reads like this: under setting [1], 3.93 ± 0.046; under setting [2], 4.19 ± 0.21. On the same counts, the results for TKVGGTNPNGGSFEEVLSSTAHAS [TPD52L1] are 4.78 ± 0.26 and 4.69 ± 0.26. On the same counts, the results for VVQDSVNISGHTNTNTLKVPECRL [SPOPL] are 3.34 ± 0.25 and 3.56 ± 0.43. On the same counts, the results for SSSYEQFNGELPNGRHKIPESQFP [SRPK2] are 4.1 ± 0.24 and 4.21 ± 0.22. In the case of CLVCGDVASGYHYGVASCEACKAF [ESRRA], the protein stability index stood at 3.96 ± 0.32 under setting [1] and 3.94 ± 0.23 under setting [2]. In the same order, the values of TEVITASEFHPHHCNLFVYSSSKG [PPP2R2C] are 2.73 ± 0.24 and 2.97 ± 0.29. On the same counts, the results for FDVKNDRYIVNGSHEANKLQDMLD [EIF5] are 3.97 ± 0.11 and 3.81 ± 0.25. Regarding LILELVSGGELFDFLAEKESLTED [DAPK3], the protein stability index reads like this: under setting [1], 1.94 ± 0.18; under setting [2], 2.49 ± 0.43. As to EPELQVGIDIMKTSFPGRGSIPEF [AASDHPPT], the protein stability index runs as follows: under setting [1], 3.67 ± 0.22; under setting [2], 3.61 ± 0.29. Turning to VYTRHGVPISVTGIAQVKIQGQNK [FLOT1], the protein stability index was found to be 2.72 ± 0.12 under setting [1] and 2.63 ± 0.39 under setting [2].

KYLKPSGNMFPTIGDVHLAPFTDE [CARM1] had a protein stability index under setting [1] of 3.69 ± 0.1 and a protein stability index under setting [2] of 3.61 ± 0.37. On the same counts, the results for QATCNVHKSAFNDWFSGHLNFQIE [FADS1] are 2.44 ± 0.28 and 2.48 ± 0.2. Regarding LDNCVEVGRIANTYNLTEVDKYVN [KLHL13], the protein stability index under setting [1] came to 4.12 ± 0.17 and the protein stability index under setting [2] stood at 3.94 ± 0.23. In the same order, the values of LHYKWIPVEDSHTADISSHFQEAI [DUSP5] are 2.17 ± 0.23 and 2.25 ± 0.52. On the same counts, the results for PADPTGNLGGGDPKGWRQLAQEAE [OAS1] are 5.17 ± 0.19 and 4.97 ± 0.18. For NKILQVFWEEHKASLGREESRAPS [CBY2], the protein stability index by setting is: under setting [1], 3.02 ± 0.13; under setting [2], 3.09 ± 0.22. In the same order, the values of NKHLCYVFDSEKCVSIPDVVGWFV [GULP1] are 2.76 ± 0.88 and 2.13 ± 0.51. In the same order, the values of RAKGLLGTTVTFDDLMGILCKSVL [FEM1C] are 2.76 ± 0.63 and 2.54 ± 0.22. On the same counts, the results for TGVPGSPGHIGPPGPTGPKGISGH [EMID1] are 4.33 ± 0.3 and 4.71 ± 0.27. DCCQVSAPNRFFQKLNVFKNFIGL [NLN] gave a protein stability index under setting [1] of 2.09 ± 0.51 and a protein stability index under setting [2] of 2.17 ± 0.21. On the same counts, the results for SDLEDMEEEEGTRSPTLEPPRGRS [SMG5] are 5.37 ± 0.16 and 5.39 ± 0.2. On the same counts, the results for KQQNVAHCMLVSNRVSWWGSTLAM [ZBED1] are 2.19 ± 0.37 and 2.03 ± 0.31. On the same counts, the results for LALGRERLGEIHTLPLPASLKAYL [SPSB1] are 2.24 ± 0.38 and 2.15 ± 0.19. As to CLKKFNARRKLKGAILTTMLATRN [CAMK2A], the protein stability index runs as follows: under setting [1], 3.21 ± 0.15; under setting [2], 3.32 ± 0.34. In the same order, the values of RALARNLIFGLITCLTGVLGVGLG [SPNS1] are 2.28 ± 0.32 and 2.92 ± 0.81. In the case of EAQISDPFAPEPTPPTTTAEIATA [SNAP91], the protein stability index stood at 5.42 ± 0.28 under setting [1] and 5.46 ± 0.13 under setting [2]. In the same order, the values of EAVSTLLGAVAVFAVGYIKISWST [SLC19A2] are 2.82 ± 0.21 and 2.98 ± 0.73. On the same counts, the results for KAEILESVIKNYEDHFPLLFSEAS [MAGEA10] are 3.06 ± 0.38 and 3.19 ± 0.51.

Take PPTTPQNEEIRAVGRLKRERSMSE [MFF]: the protein stability index runs as follows: under setting [1], 4.82 ± 0.28; under setting [2], 5.05 ± 0.14.

RSANGFPYREDEEGAFGEHGSQGT [MAP2]: the protein stability index runs as follows: under setting [1], 5.38 ± 0.25; under setting [2], 5.41 ± 0.2. GIRKEDLDIVCERFTTSKLQSFED [MLH1] displayed a protein stability index under setting [1] of 3.6 ± 0.22.
